Data set [1] addresses human GPIHBP1 coated on ELISA wells (human) (UniProt Q8IV16). In words: ELISA.
Data set [2] deals with the molecule itself. In words: crystal structure.

“And” between values parts separate entries of the source, which are not always exact repeats. Equal entries are not always repeated.

Sequence of human GPIHBP1 coated on ELISA wells (human) (Q8IV16 21-151): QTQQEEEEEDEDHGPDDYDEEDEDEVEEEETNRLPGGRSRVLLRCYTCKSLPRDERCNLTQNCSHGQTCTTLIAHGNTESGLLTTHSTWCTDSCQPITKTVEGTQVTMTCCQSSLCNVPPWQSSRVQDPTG

As for “FLAG-tagged human LPL-M404R (from UniProt P06858 28-475) (enzyme)”, the percent reduction of binding against LPL-wt in data set [1] was 79% and 85%.

B1: human lipoprotein lipase harboring an R324A mutation (enzyme, UniProt P06858 28-475, looked up)
chain: ADQRRDFIDIESKFALRTPEDTAEDTCHLIPGVAESVATCHFNHSSKTFMVIHGWTVTGMYESWVPKLVAALYKREPDSNVIVVDWLSRAQEHYPVSAGYTKLVGQDVARFINWMEEEFNYPLDNVHLLGYSLGAHAAGIAGSLTNKKVNRITGLDPAGPNFEYAEAPSRLSPDDADFVDVLHTFTRGSPGRSIGIQKPVGHVDIYPNGGTFQPGCNIGEAIRVIAERGLGDVDQLVKCSHERSIHLFIDSLLNEENPSKAYRCSSKEAFEKGLCLSCRKNRCNNLGYEINKVRAKASSKMYLKTRSQMPYKVFHYQVKIHFSGTESETHTNQAFEISLYGTVAESENIPFTLPEVSTNKTYSFLIYTEVDIGELLMLKLKWKSDSYFSWSDWWSSPGFAIQKIRVKAGETQKKVIFCSREKVSHLQKGKAPAVFVKCHDKSLNKKSG
modifications: N-linked glycans at N70 and N386
With B1, the binding result in data set [2] is given as “binds”.

The record behind these values is PMC6358717 (Proceedings of the National Academy of Sciences of the …, 2018).
